# B1: QX007N(HZD78-70) (antibody, V domains shown)
# VH: EVQLVESGGGLVQPGGSLRLSCAASGFSLSSYHMIWVRQAPGKGLEWVGVIYPNSNIYYATWAKGRFTISRDNSKNTLYLQMNSLRAEDTAVYYCARTIYVHVYSALSIWGQGTLVTVSS
# VL: AFQMTQSPSSVSASVGDRVTITCQASESVLNEVSWYQQKPGKAPKLLIYFASKLASGVPSRFSGSGSGTDFTLTISSLQPEDFATYYCQQDWSMDNIDNAFGGGTKVEIKR
# Tests used:
# [1] = biological target: T1, 人白介素-33 (human interleukin-33, recombinant) (human, UniProt O95760 112-270); assay: cell-based or functional assay
# T1 sequence: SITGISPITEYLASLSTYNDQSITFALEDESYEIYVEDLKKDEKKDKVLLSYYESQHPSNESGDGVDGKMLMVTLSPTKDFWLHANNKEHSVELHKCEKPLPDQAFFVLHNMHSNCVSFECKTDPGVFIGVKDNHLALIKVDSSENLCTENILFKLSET
# [2] = biological target: T2, 天然人白介素-33 (natural human interleukin-33 from HFL-1 cell lysate) (human, UniProt O95760 1-270, limits assumed); assay: cell-based or functional assay
# T2 sequence (looked up): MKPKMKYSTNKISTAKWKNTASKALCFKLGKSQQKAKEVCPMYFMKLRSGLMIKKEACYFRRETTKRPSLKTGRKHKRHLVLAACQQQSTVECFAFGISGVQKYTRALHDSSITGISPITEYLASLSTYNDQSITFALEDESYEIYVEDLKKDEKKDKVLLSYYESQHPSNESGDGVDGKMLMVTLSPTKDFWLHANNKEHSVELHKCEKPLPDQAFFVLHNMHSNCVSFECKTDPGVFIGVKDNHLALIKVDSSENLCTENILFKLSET
binder,measurement,setting,value
B1,"中和人白介素-33诱导人全血释放IFN-γ, IC50",[1],16 ng/mL
same,"中和人白介素-33诱导的KU812细胞释放IL-5 (IL-5 ELISA), IC50",[1],5.87 ng/mL
same,"中和重组人白介素-33诱导HEK Blue IL-33细胞中NF-κB/AP-1信号转导 (SEAP, OD630nm), IC50",[1],6.67 ng/mL
same,"中和天然人白介素-33诱导HEK Blue IL-33细胞中NF-κB/AP-1信号转导 (SEAP, OD630nm), IC50",[2],3.91 ng/mL

# Reference: patent CN114014929A (JIANGSU QYUNS THERAPEUTICS CO LTD, dated 2022)
